Laboratory results published in PMC6726503.

Target: T1, human TGF-β2 (human)
T1 sequence (P61812 303-414, looked up): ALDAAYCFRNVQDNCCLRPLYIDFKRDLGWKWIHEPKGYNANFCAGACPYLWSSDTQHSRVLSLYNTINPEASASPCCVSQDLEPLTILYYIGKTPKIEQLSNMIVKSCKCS
Experiment: SPR

B1: full-length rat betaglycan ectodomain (domain or fragment)
chain: GPEPSTRCELSPINASHPVQALMESFTVLSGCASRGTTGLPREVHVLNLRSTDQGPGQRQREVTLHLNPIASVHTHHKPIVFLLNSPQPLVWHLKTERLAAGVPRLFLVSEGSVVQFPSGNFSLTAETEERNFPQENEHLLRWAQKEYGAVTSFTELKIARNIYIKVGEDQVFPPTCNIGKNFLSLNYLAEYLQPKAAEGCVLPSQPHEKEVHIIELITPSSNPYSAFQVDIIVDIRPAQEDPEVVKNLVLILKCKKSVNWVIKSFDVKGNLKVIAPNSIGFGKESERSMTMTKLVRDDIPSTQENLMKWALDNGYRPVTSYTMAPVANRFHLRLENNEEMRDEEVHTIPPELRILLDPDHPPALDNPLFPGEGSPNGGLPFPFPDIPRRGWKEGEDRIPRPKQPIVPSVQLLPDHREPEEVQGGVDIALSVKCDHEKMVVAVDKDSFQTNGYSGMELTLLDPSCKAKMNGTHFVLESPLNGCGTRHRRSTPDGVVYYNSIVVQAPSPGDSSGWPDGYEDLESGDNGFPGDGDEGETAPLSRAGVVVFNCSLRQLRNPSGFQGQLDGNATFNMELYNTDLFLVPSPGVFSVAENEHVYVEVSVTKADQDLGFAIQTCFLSPYSNPDRMSDYTIIENICPKDDSVKFYSSKRVHFPIPHAEVDKKRFSFLFKSVFNTSLLFLHCELTLCSRKKGSLKLPRCVTPDDACTSLDATMIWTMMQNKKTFTKPLAVVLQVDYKENVPSTKDSSPIPPPPPQIFHGLDTLTV
- Kd: 0.511 nM
- koff: 0.000755 s⁻¹
- kon: 1.48e+06 M⁻¹ s⁻¹
